Key:
Assay in all cases: cell-based or functional assay
[1] = target: Humira (Abbvie), human IgG1
[2] = target: XGEVA (Amgen), human IgG2
[3] = target: Humira (Abbvie), human IgG1; remark: listed apart in the source
[4] = target: human IgG4 from Abcam (ab90286 Lot #GR3180469) (human)
[5] = target: XGEVA (Amgen), human IgG2; remark: listed apart in the source
[6] = target: human IgG3 from Sigma (15654 Lot #SLBW0899) (human)

Binder	Approximate EC50 value, i.e. equal amounts of scIgG and F(ab')2 (SDS-PAGE) [1] [µg/mL]	Conc. of enzyme for cleavage of 1st IgG1 heavy chain, IgG to scIgG (SDS-PAGE) [1] [ng/mL]	Conc. of enzyme for cleavage of 2nd IgG1 heavy chain, scIgG to F(ab')2 (SDS-PAGE) [1] [ng/mL]	Approximate EC50 value, i.e. equal amounts of scIgG and F(ab')2 (SDS-PAGE) [2] [µg/mL]	Conc. of enzyme for cleavage of 1st IgG2 heavy chain, IgG to scIgG (SDS-PAGE) [2] [ng/mL]	Conc. of enzyme for cleavage of 2nd IgG2 heavy chain, scIgG to F(ab)2 (SDS-PAGE) [2] [ng/mL]	IgG1 EC50 F(ab')2 (SDS-PAGE, visual estimate) [3] [µg/mL]	IgG1 EC50 scIgG (SDS-PAGE, visual estimate) [3] [µg/mL]	IgG4 EC50 F(ab')2 (SDS-PAGE, visual estimate) [4] [µg/mL]	IgG4 EC50 scIgG (SDS-PAGE, visual estimate) [4] [µg/mL]	IgG2 EC50 F(ab')2 (SDS-PAGE, visual estimate) [5] [µg/mL]	IgG2 EC50 scIgG (SDS-PAGE, visual estimate) [5] [µg/mL]	IgG3 EC50 F(ab')2 (SDS-PAGE, visual estimate) [6] [µg/mL]	IgG3 EC50 scIgG (SDS-PAGE, visual estimate) [6] [µg/mL]
pCART207, a variant IdeZ polypeptide (enzyme) MDDYQRNATEAYAKEVPHQITSVWTKGVTPPEQFTQGEDVIHAPYLAHQGWYDITKAFDGKDNLLCGAATAGNMLHWWFDQNKTEIEAYLSKHPEKQKIIFRNQELFDLKAAIDTKDSQTNSQLFNYFRDKAFPNLSARQLGVMPDLVLDMFINGYYLNVFKTQSTDVNRPYQDKDKRGGIFDAVFTRGDQTTLLTARHDLKNKGLNDISTIIKQELTEGRALALSHTYANVSISHVINLWGADFNAEGNLEAIYVTDSDANASIGMKKYFVGINAHGHVAISAKKIEGENIGAQVLGLFTLSSGKDIWQKLS	~0.04	~1.5	~120	~1.1	~40	~3300								
N240, a variant IdeZ polypeptide of the invention (enzyme) MDDYQRNATEAYAKEVPHQITSVWTKGVTPPEQFTQGEDVIHAPYLAHQGWYDITKAFNGKDDLLCGAATAGNMLHWWFDQNKTEIEAYLSKHPEKQKIIFRNQELFDLKAAIDTKDSQTNSQLFNYFRDKAFPNLSARQLGVMPDLVLDMFINGYYLNVFKTQSTDVNRPYQDKDKRGGIFDAVFTRGNQTTLLTARHDLKNKGLNDISTIIKQELTEGRALALSHTYANVSISHVINLWGADFNAEGNLEAIYVTDSDANASIGMKKYFVGINAHGHVAISAKKIEGENIGAQVLGLFTLSSGKDIWQKLS							0.014	0.0005	0.062	0.002	0.12	0.0046	0.015	0.007
pCART229, a variant IdeZ polypeptide (enzyme) MDDYQRNATEAYAKEVPHQITSVWTKGVTPPEQFTQGEDVIHAPYLAHQGWYDITKAFDGKDNLLCGAATAGNMLHWWFDQNKTEIEAYLSKHPEKQKIIFRNQELFDLKAAIDTKDSQTNSQLFNYFRDKAFPNLSARQLGVMPDLVLDMFINGYYLNVFKTQSTDVNRPYQDKDKRGGIFDAVFTRGNQTTLLTARHDLKNKGLNDISTIIKQELTEGRALALSHTYANVSISHVINLWGADFNAEGNLEAIYVTDSDANASIGMKKYFVGINAHGHVAISAKKIEGENIGAQVLGLFTLSSGKDIWQKLS	~0.04	~1.5	~120	~1.1	~40	~3300								
pCART242, a variant IdeZ polypeptide of the invention (enzyme) MSVWTKGVTPPEQFTQGEDVIHAPYLAHQGWYDITKAFNGKDDLLCGAATAGNMLHWWFDQNKTEIEAYLSKHPEKQKIIFRNQELFDLKAAIDTKDSQTNSQLFNYFRDKAFPNLSARQLGVMPDLVLDMFINGYYLNVFKTQSTDVNRPYQDKDKRGGIFDAVFTRGNQTTLLTARHDLKNKGLNDISTIIKQELTEGRALALSHTYANVSISHVINLWGADFNAEGNLEAIYVTDSDANASIGMKKYFVGINAHGHVAISAKKIEGENIGAQVLGLFTLSSGKDIWQKLSGGGHHHHHH		~1.5	~40		~10	~400								
